According to article PMC2650427 (Bioconjugate chemistry, 2008):

assay: Determination of q by luminescence lifetime measurements; type: physicochemical; conditions: emission 544 nm, excitation 229 nm, 25 scans averaged, monoexponential fit

Compared with Tb(III)-DOTA-SS-Arg8 [compound 12], Tb(III)-DOTA-Arg8 [compound 10] is lower in “kD2O (luminescence decay rate in D2O)” value: 0.397 ms^−1 for the first, 0.315 ms^−1 for the second.

First: Tb(III)-DTPA-Arg8 [compound 11]
Second: Tb(III)-DTPA-SS-Arg8 [compound 13]
The “kD2O (luminescence decay rate in D2O)” value of the first is lower: 0.331 ms^−1 for the first, 0.390 ms^−1 for the second.

Going from Tb(III)-DOTA-SS-Arg8 [compound 12] to Tb(III)-DOTA-Arg8 [compound 10], the “kH2O (luminescence decay rate in H2O)” value falls from 0.644 ms^−1 to 0.566 ms^−1.

Compared with Tb(III)-DTPA-Arg8 [compound 11], Tb(III)-DTPA-SS-Arg8 [compound 13] is higher in “kH2O (luminescence decay rate in H2O)” value: 0.635 ms^−1 for the first, 0.671 ms^−1 for the second.
